In patent publication US20220306733A1:
Residue numbers refer to the chain shown, from its start.

B1: anti-TIGIT antibody clone 26486 (antibody, V domains shown)
VH: QVQLQESGPGLVKPSETLSLTCAVSGYSISSGYYWAWIRQPPGKGLEWIGSIYHSGSTYYNPSLKSRVTISVDTSKNQFSLKLSSVTAADTAVYYCAIEGANYYDFGYVAFDIWGQGTMVTVSS
VL: EIVMTQSPATLSVSPGERATLSCRASQSVSSNLAWYQQKPGQAPRLLIYGASTRATGIPARFSGSGSGTEFTLTISSLQSEDFAVYYCQQSPPWPRTFGGGTKVEIK
B2: anti-TIGIT antibody clone 29499 (antibody, V domains shown)
VH: QLQLQESGPGLVKPSETLSLTCTVSGGSISSSRYYWAWIRQPPGKGLEWIGSIGTSGSTYYNPSLKSRVTISVDTSKNQFSLKLSSVTATDTAVYYCAIEGANFRDFGYVAFDIWGQGTMVTVSS
VL: B1 VL
B3: anti-TIGIT antibody clone 29494 (antibody, V domains shown)
VH: B2 VH with L2V, S32G, R33S, W36L, G54F, T55R, K66E, T90A, R105K
VL: B1 VL
B4: anti-TIGIT antibody clone 32931 (antibody, V domains shown)
VH: B2 VH with S32G, R33S, W36L, G54F, T55R, K66E, T90A, R105K, M120T
VL: B1 VL with Q27K, G50F, S91T, P92S
B5: anti-TIGIT antibody clone 31288 (antibody, V domains shown)
VH: B2 VH with S32G, R33S, W36L, G54F, T55R, K66E, T90A, R105K, M120T
VL: B1 VL
B6: anti-TIGIT antibody clone 29513 (antibody, V domains shown)
VH: QVQLVQSGAEVKKPGSSVKVSCKASGGTFQNYAISWVRQAPGQGLEWMGVIVPIFGTANYAQKFQGRVTVTADESTSTAYMELSSLRSEDTAVYYCARLHLGQKAYYGMDVWGQGTTVTVSS
VL: DIQMTQSPSSLSASVGDRVTITCRASQSISSYLNWYQQKPGKAPKLLIYAASSLQSGVPSRFSGSGSGTDFTLTISSLQPEDFATYYCQQRYVFPPTFGGGTKVEIK
B7: anti-TIGIT antibody clone 26493 (antibody, V domains shown)
VH: EVQLVESGGGLVQPGRSLRLSCAASGFTFGDYAMHWVRQAPGKGLEWVSGITWNSGSIGYADSVKGRFTISRDNAKNSLYLQMNSLRAEDTALYYCAKPVPKSRGLDVWGQGTMVTVSS
VL: DIQLTQSPSSVSASVGDRVTITCRASQGISSWLAWYQQKPGKAPKLLIYGASSLQSGVPSRFSGSGSGTDFTLTISSLQPEDFATYYCQQAFYLPWTFGGGTKVEIK
B8: anti-TIGIT antibody clone 29523 (antibody, V domains shown)
VH: EVQLVESGGGVVQPGRSLRLSCAASGFTFGSYYMHWVRQAPGKGLEWVAVIWPDGSNKLYADSVKGRFTISRDNSKNTLYLQMNSLRAEDTALYYCAKPVPKSRALDVWGQGTMVTVSS
VL: B7 VL
B9: anti-TIGIT antibody clone 29520 (antibody, V domains shown)
VH: B7 VH with E1Q, G30R, S57L, K102R, S103L
VL: B7 VL
B10: anti-TIGIT antibody clone 29527 (antibody, V domains shown)
VH: B8 VH with E1Q, G30S, Y32S, W52G, P53A, L59Y, K65E, K102R, S103R, A105G
VL: B7 VL

What follows are binders tested against Polyspecificity reagent (PSR): biotinylated soluble membrane proteins of CHO cells (assay: flow cytometry, biotinylated PSR on IgG-presenting yeast).

Row | Binder | Polyspecificity Reagent (PSR) Score (0-1)
1 | B1 | 0 score 0-1
2 | B2 | 0.1 score 0-1
3 | B3 | 0 score 0-1
4 | B4 | 0 score 0-1
5 | B5 | 0 score 0-1
6 | B6 | 0.01 score 0-1
7 | B7 | 0 score 0-1
8 | B8 | 0.12 score 0-1
9 | B9 | 0.32 score 0-1
10 | B10 | 0.12 score 0-1
